Like-named read-outs stand apart in the source and are kept apart here.
Key:
[1] = system: A375 melanoma tumor cells; assay: A375 proliferation assay (DNA synthesis, EdU); format: cell-based, human; details: 100 μg/mL, overnight
Method: After the overnight incubation, cell proliferation was determined by measuring the level of DNA synthesis.
After an overnight incubation, proliferation of the cells was measured by determining the level of DNA synthesis.
Proliferation of A375 melanoma tumor cells in vitro following exposure to various treatments was assessed. […] With reference to FIG. 33, the complexes were made with an ABRAXANE®: AVASTIN® at a 2.5 to 1 ratio. […] The nanoparticles were resuspended in 0.9% saline and added to the wells containing 50,000 A375 cells. The cells were incubated overnight at 37° C. The cells were stained with a thymidine analog, EdU, which incorporates into the DNA as cells proliferate. Cells that are actively proliferating stain positive. The proliferation index was calculated as the % positive cells in treated cells/% positive cells in untreated cells.
After the overnight incubation, the A375 cells were harvested, permeabolized and intracellularly stained with a FITC conjugated anti-EdU antibody. Cell proliferation was determined by DNA synthesis as a percentage of cells, which were FITC positive on a Guava 8HT flow cytometer (Millipore Billerica, Mass.). […] The proliferation index was calculated by dividing the percentage of proliferating cells in treated wells (FITC positive) by the percentage of cells proliferating in the untreated well.

[2] = system: A375 human melanoma tumor cells; assay: A375 xenograft, ABRAXANE/AVASTIN/cisplatin complexes; details: treated once intravenously
Method: Athymic nude mice were injected with 1×10^6 A375 human melanoma tumor cells. […] Following incubation, the complexes were diluted for mouse injection. Mice were treated once, and tumor growth was monitored for at least 80 days for all mice.

ABRAXANE® nanoparticles = molecular target: T1, ABRAXANE® nanoparticles (Homo sapiens, UniProt P02768); assay: Complex formation of labeled therapeutic antibodies with labeled ABRAXANE nanoparticles (flow cytometry); format: binding; details: fluorescently labeled, FIG. 14
T1 construct: purchased Celgene Corp
Description: The particles were spun down, washed, and visualized by flow cytometry.

[3] = Bevacizumab binding of free paclitaxel (Western blot); details: 4 mg bevacizumab with 0.1-2 mg paclitaxel, 30 minutes room temperature
Method: The following was performed to determine if bevacizumab binds free paclitaxel. 4 mg of bevacizumab was incubated with paclitaxel (0.1, 0.5, 1, or 2 mg) for 30 minutes at room temperature.

human serum albumin = molecular target: T2, human serum albumin (Homo sapiens, UniProt P02768); assay: Association and dissociation of AVASTIN with human serum albumin (streptavidin sensor); format: binding; details: read-out: dissociation constant
T2 construct: purchased
Method: (§1) The association and dissociation of AVASTIN® with human serum albumin and ABRAXANE® were determined. In this experiment, biotinylated AVASTIN® was bound to a streptavidin sensor. After AVASTIN® loading to the sensor, the sensor was exposed to either 1 mg/mL of human serum albumin or 1 mg/mL of ABRAXANE®. […] The dissociation constants were calculated to be 6.2×10^−6 and 5.873×10^−7 for human serum albumin and ABRAXANE®, respectively.
(§2) The association and dissociation of albumin with AVASTIN® and AVASTIN® with ABRAXANE® were determined. In this experiment, biotinylated AVASTIN® or biotinylated Albumin® was bound to a streptavidin sensor. After albumin or AVASTIN® loading to the sensor, the sensor was exposed to 1 mg/mL of AVASTIN® or 1 mg/mL of ABRAXANE®, respectively. […] The dissociation constant calculated for albumin and AVASTIN® was 6.588×10^−10. The dissociation constant calculated for AVASTIN® and ABRAXANE® in this experiment was 1.698×10^−5.

ABRAXANE® = molecular target: T3, ABRAXANE® (Homo sapiens, UniProt P02768); assay: Association and dissociation of AVASTIN (or IgG) with ABRAXANE (streptavidin sensor); format: binding; details: biotinylated AVASTIN on streptavidin sensor, 1 mg/mL ABRAXANE, read-out: dissociation constant
T3 construct: purchased Celgene Corp
Method: as §1, §2
The following was performed to assess protein binding due to deglycosylation of bevacizumab compared to naturally occurring IgG. In order to determine if bevacizumab binding to ABRAXANE® is due to the deglycosylation of the Fe chain of the antibody, the binding kinetics of bevacizumab were compare to naturally produced IgG isolated from human plasma.

Row | Molecule | cells killed [1] | median survival [2] | complex formation with ABRAXANE nanoparticles (ABRAXANE® nanoparticles) | binding of free paclitaxel [3] | Kd (human serum albumin; biotinylated AVASTIN on streptavidin sensor, 1 mg/mL human serum albumin) | Kd (human serum albumin; biotinylated albumin on streptavidin sensor, 1 mg/mL AVASTIN) | Kd (ABRAXANE®; first experiment, listed as bevacizumab) | Kd (ABRAXANE®; first experiment) | Kd (ABRAXANE®; second experiment)
1 | N.N.[Cl][Pt][Cl] [cisplatin, cisdiamminedichloroplatinum (II)] | 100% | 9 days | – | – | – | – | – | – | –
2 | AVASTIN®: humanized monoclonal antibody that binds to vascular endothelial growth factor A | – | – | spontaneously formed complexes with ABRAXANE® nanoparticles | did not bind free paclitaxel | 6.2 µM | 0.000659 µM | 0.58 µM | 0.587 µM | 17 µM
3 | rituxan: therapeutic monoclonal antibody | – | – | spontaneously formed complexes with ABRAXANE® nanoparticles | – | – | – | – | – | –

— patent US10279036B2, “Antibody-albumin nanoparticle complexes comprising albumin, bevacizumab, and paclitaxel, and methods of making and using the same” (Mayo Foundation for Medical Education and Research, priority 2012, dated 2019)
